Assays:
SRp55 = biological target: T1, SRp55 (UniProt Q3TWW8)
T1 sequence: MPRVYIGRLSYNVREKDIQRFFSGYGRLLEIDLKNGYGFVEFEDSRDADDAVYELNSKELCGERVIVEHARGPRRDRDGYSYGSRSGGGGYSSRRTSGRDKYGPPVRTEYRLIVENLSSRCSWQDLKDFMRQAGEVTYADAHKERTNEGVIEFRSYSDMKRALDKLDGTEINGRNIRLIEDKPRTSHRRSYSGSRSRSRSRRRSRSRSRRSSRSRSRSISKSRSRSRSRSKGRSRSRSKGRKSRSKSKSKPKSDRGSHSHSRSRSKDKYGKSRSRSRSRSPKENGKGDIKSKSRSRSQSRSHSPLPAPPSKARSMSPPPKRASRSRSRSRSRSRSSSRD

SRp30b = SRp30b (UniProt Q62093)
SRp30a = SRp30a (UniProt Q6PDM2)
SRp20 = biological target: T2, SRp20 (UniProt P84104)
T2 sequence: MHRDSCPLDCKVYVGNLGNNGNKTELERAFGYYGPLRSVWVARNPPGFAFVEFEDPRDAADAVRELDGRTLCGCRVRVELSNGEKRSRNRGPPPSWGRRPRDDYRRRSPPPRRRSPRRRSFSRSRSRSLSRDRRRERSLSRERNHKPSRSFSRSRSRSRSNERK

SRp40 = biological target: T3, SRp40 (UniProt O35326)
T3 sequence: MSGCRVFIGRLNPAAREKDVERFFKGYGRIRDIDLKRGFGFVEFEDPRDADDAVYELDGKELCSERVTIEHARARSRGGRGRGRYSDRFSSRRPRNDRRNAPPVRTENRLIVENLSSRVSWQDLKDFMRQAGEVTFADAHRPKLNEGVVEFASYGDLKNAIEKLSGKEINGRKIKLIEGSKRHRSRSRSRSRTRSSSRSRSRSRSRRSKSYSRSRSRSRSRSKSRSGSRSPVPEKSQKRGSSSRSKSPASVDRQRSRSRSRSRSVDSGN

Sequence of SRp30a (Q6PDM2 2-248): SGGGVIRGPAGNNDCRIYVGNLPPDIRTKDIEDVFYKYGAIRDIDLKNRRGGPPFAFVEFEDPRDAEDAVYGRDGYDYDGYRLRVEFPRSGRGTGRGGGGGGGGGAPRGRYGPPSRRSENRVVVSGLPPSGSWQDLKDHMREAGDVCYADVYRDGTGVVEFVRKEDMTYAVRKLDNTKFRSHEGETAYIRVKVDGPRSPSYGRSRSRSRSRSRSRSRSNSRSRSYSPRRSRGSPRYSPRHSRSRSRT
Sequence of SRp30b (Q62093 2-221): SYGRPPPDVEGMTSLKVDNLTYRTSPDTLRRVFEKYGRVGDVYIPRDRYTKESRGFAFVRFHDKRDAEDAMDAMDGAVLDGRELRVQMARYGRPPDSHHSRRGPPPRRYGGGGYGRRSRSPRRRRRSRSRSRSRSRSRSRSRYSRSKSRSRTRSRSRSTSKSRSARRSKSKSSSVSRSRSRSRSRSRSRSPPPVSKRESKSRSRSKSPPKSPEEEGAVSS

| Substance | phosphorylation of SR proteins, in vitro kinase assay with gamma-32P-ATP (SRp55) | phosphorylation of SR proteins, in vitro kinase assay with gamma-32P-ATP (SRp30b) | phosphorylation of SR proteins, in vitro kinase assay with gamma-32P-ATP (SRp30a) | phosphorylation of SR proteins, in vitro kinase assay with gamma-32P-ATP (SRp20) | phosphorylation of SR proteins, in vitro kinase assay with gamma-32P-ATP (SRp40) |
| --- | --- | --- | --- | --- | --- |
| GST-mCLK3 fusion protein | All mCLK kinases were able to phosphorylate SRp2O, SRp3Oa and to a lesser extent SRp4O and SRp55 | mCLK2 and mCLK3 phosphorylated both with almost equal efficiency | All mCLK kinases were able to phosphorylate SRp2O, SRp3Oa and to a lesser extent SRp4O and SRp55 | All mCLK kinases were able to phosphorylate SRp2O, SRp3Oa and to a lesser extent SRp4O and SRp55 | All mCLK kinases were able to phosphorylate SRp2O, SRp3Oa and to a lesser extent SRp4O and SRp55 |
| GST-mCLK2 fusion protein | All mCLK kinases were able to phosphorylate SRp2O, SRp3Oa and to a lesser extent SRp4O and SRp55 | mCLK2 and mCLK3 phosphorylated both with almost equal efficiency | All mCLK kinases were able to phosphorylate SRp2O, SRp3Oa and to a lesser extent SRp4O and SRp55 | All mCLK kinases were able to phosphorylate SRp2O, SRp3Oa and to a lesser extent SRp4O and SRp55 | All mCLK kinases were able to phosphorylate SRp2O, SRp3Oa and to a lesser extent SRp4O and SRp55 |
| GST-mCLK4 fusion protein | All mCLK kinases were able to phosphorylate SRp2O, SRp3Oa and to a lesser extent SRp4O and SRp55 | mCLK1 and mCLK4 phosphorylated SRp3Oa (upper band) more strongly than SRp3Ob | All mCLK kinases were able to phosphorylate SRp2O, SRp3Oa and to a lesser extent SRp4O and SRp55 | All mCLK kinases were able to phosphorylate SRp2O, SRp3Oa and to a lesser extent SRp4O and SRp55 | All mCLK kinases were able to phosphorylate SRp2O, SRp3Oa and to a lesser extent SRp4O and SRp55 |

— patent US7074589
